# Experimental data: patent US20050095615
# B1: TEV protease (protein)
# chain: GESLFKGPRDYNPISSTICHLTNESDGHTTSLYGIGFGPFIITNKHLFRRNNGTLLVQSLHGVFKVKNTTTLQQHLIDGRDMIIIRMPKDFPPFPQKLKFREPQREERICLVTTNFQTKSMSSMVSDTSCTFPSSDGIFWKHWIQTKDGQCGSPLVSTRDGFIVGIHSASNFTNTNNYFTSVPKNFMELLTNQEAQQWVSGWRLNADSVLWGGHKVFMSKPEEPFQPVKEATQLMNELVYSQ
# Target: His6/LUMIO tag/MBP protein expressed from pET160-GW/MBP [MBP: P0AEX9]
protein,measurement,value
B1,cleavage by TEV protease,The TEV protease efficiently cleaves the N-terminal sequences from partially purified protein.
same,digestion with TEV protease analyzed by SDS-PAGE,The results demonstrated that the pET160-DEST vector can encode a functional TEV cleavage site.
